Source: PMC10976746, “Iguratimod, an allosteric inhibitor of macrophage migration inhibitory factor (MIF), prevents mortality and oxidative stress in a murine model of acetaminophen overdose” (Molecular Medicine, 2024)

Biological target: T1, Human macrophage migration inhibitory factor (MIF) (human), P14174
T1 chain: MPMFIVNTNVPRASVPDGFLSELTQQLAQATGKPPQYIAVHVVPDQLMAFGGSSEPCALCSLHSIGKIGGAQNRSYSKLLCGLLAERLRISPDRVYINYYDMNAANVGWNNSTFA
Experiment: crystal structure; MIF (~18 mg/mL) co-crystallised with the small molecule T-614 at 1:3 protein-inhibitor molar ratio; hanging drop vapor diffusion; 20 mM Tris HCl pH 7.5, 2 M (NH4)2SO4, 3% 2-propanol; 20 C
Settings: remark: other sources report otherwise

B1: Human macrophage migration inhibitory factor (MIF), P14174 1-115 (natural protein)
chain: MPMFIVNTNVPRASVPDGFLSELTQQLAQATGKPPQYIAVHVVPDQLMAFGGSSEPCALCSLHSIGKIGGAQNRSYSKLLCGLLAERLRISPDRVYINYYDMNAANVGWNNSTFA
stoichiometry N: 3
